Experimental findings from US20210052637A1 (CONSIGLI NAZIONALE DELLE RICERCHE, published 2021) are described below.

The assay addresses T1, folate receptor Frα (UniProt P15328 25-234, limits assumed).
T1 construct: whole, on cells; also called α-FR; folate receptor alpha
Kind of assay: flow cytometry on IGROV-1, KB and A431-tFR cells; 0.025 mg/mL antibody fragment on nanocubes, 4° C., 1 hour; detected with anti-myc primary antibody and Alexa-488 secondary antibody. Here is the method:
The A431-tFR and A431-MOCK cells provided by the IRCSS Foundation, National Cancer Institute, Milan, Italy, were grown in the modified Dulbecco culture medium (DMEM, Merck, Kenilworth, USA). IGROV-1 cells (ATCC, UK) were cultured in RPMI-1640 (RPMI-1640, Merck, Kenilworth, USA). The KB cells (ATCC, UK) were cultured in RPMI-1640 without folic acid (RPMI-1640 without folic acid, Merck, Kenilworth, USA). All culture media were added with 10% inactivated fetal bovine serum (FBS), 1% penicillin-streptomycin and 1% glutamine at 37° C., 95% humidity with 5% CO2. The cells were divided every 3-4 days before reaching confluence.
In these experiments, the functionalized nanocubes of the invention comprising the antibody fragment in a quantity of 0.025 mg/mL were incubated in PBS at 4° C. for 1 hour with 5×10⁵ cells of the cell lines indicated above. As a negative control, the non-functionalised nanocubes with polymer coating were used. Then, after three washes, the cells were incubated for 1 hour at 4° C. with the primary antibody that binds to the myc sequence of the C4 antibody fragment. Following a wash in PBS a secondary antibody conjugated to the fluorescent probe Alexa-488 was added to the cells, capable of binding the Fc portion of the primary antibody.

T1 sequence (P15328 25-234 limits assumed): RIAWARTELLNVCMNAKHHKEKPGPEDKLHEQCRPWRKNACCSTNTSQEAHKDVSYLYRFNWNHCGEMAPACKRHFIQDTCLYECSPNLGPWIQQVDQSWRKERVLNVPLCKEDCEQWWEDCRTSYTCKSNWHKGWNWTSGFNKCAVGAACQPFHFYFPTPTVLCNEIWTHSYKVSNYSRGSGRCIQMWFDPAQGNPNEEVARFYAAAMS

B1: single chain variable fragment of human antibody C4 (C4 scFv), attached to iron oxide nanocubes (scFv)
scFv: NVQLVESGGGLVQPGRSLRLSCTTSGFTFGDYAMIWARQAPGKGLEWVSSISSSSSYIYYADSVKGRFTISRDNAKNSLYLQMNSLRAEDTAVYYCARERYDFWSGMDVWGKGTTVTVSSGGGGSGGGGSGGSAQSALTQPASVSGSPGQSITISCTGTSSDVGSYNLVSWYQQHPGKAPKLMIYEGSKRPSGVSNRFSGSKSGNAASLTISGLQAEDEADYYCQSYDSSLSVVFGGGTKLTVLGAAAHHHHHHGAAEQ
modifications: histidine tag complexed to Ni2+ of PEG-NTA-Ni linker on the polymer-coated iron oxide nanocube
notes: In the assays the scFv was not free; It was held on polymer-coated cubic iron oxide nanoparticles through its histidine tag and PEG-NTA-Ni, with or without PEG-oxaliplatin; also called scFvC4; C4 antibody fragment
Consider B1, for which the binding result is listed as “binds”.
